Results published in PMC10033316, “Expression of GnT-III decreases chemoresistance via negatively regulating P-glycoprotein expression: Involvement of the TNFR2-NF-κB signaling pathway” (The Journal of Biological Chemistry, 2023).

Biological target: the molecule itself
Assay: cross-linking; cells without TNFα stimulation, 1 mM BS3 for 30 min at room temperature on whole cells; RIPA lysate, nonreducing SDS-PAGE, anti-Flag blot

B1: TNF receptor 2 (TNFR2) with a 3x FLAG tag, overexpressed in K562/ADR cells (bisected N-glycans lacking) (receptor, human, UniProt P20333 23-461, looked up)
chain: LPAQVAFTPYAPEPGSTCRLREYYDQTAQMCCSKCSPGQHAKVFCTKTSDTVCDSCEDSTYTQLWNWVPECLSCGSRCSSDQVETQACTREQNRICTCRPGWYCALSKQEGCRLCAPLRKCRPGFGVARPGTETSDVVCKPCAPGTFSNTTSSTDICRPHQICNVVAIPGNASMDAVCTSTSPTRSMAPGAVHLPQPVSTRSQHTQPTPEPSTAPSTSFLLPMGPSPPAEGSTGDFALPVGLIVGVTALGLLIIGVVNCVIMTQVKKKPLCLQREAKVPHLPADKARGTQGPEQQHLLITAPSSSSSSLESSASALDRRAPTRNQPQAPGVEASGAGEARASTGSSDSSPGGHGTQVNVTCIVNVCSSSDHSSQCSSQASSTMGDTDSSPSESPKDEQVPFSKEECAFRSQLETPETLLGSTEEKPLPLGVPDAGMKPS
modifications: N-glycosylated; modification by bisected N-glycans on TNFR2 significantly suppressed in K562/ADR cells
notes: TNF receptor 2 (TNFR2), human, cDNA cloned from K562 cells; Same construct as m1; host K562/ADR cells have very low GnT-III; also called TNFR2-Flag; source: K562/ADR cells infected by virus with the CSIV-TRE-RfA-CMV-KT-TNFR2 plasmid, on the cell surface; not shown: 3x FLAG, C-terminal, kept
stoichiometry N: 3
